From patent publication US12564623B2, “Methods and compositions for treating cancer” (The University of Chicago, priority 2017, dated 2026)

Legend:
E0771 cancer cells = experiment: ELANE with anti-PD-L1 in a mouse model of TNBC; assay type: in vivo, C57BL/6 mice; conditions: ELANE 11.6 μg + anti-PD-L1 100 μg
Protocol: E0771 cancer cells were injected into C57BL/6 mice. Once tumors reached ˜100 mm^3, mice were randomly separated into four groups: ELANE (11.6 μg), PMSF-inactivated ELANE (PMSF-ELANE), anti-PD-L1 (BioXCell, 10F.9G2, 100 μg), and ELANE (11.6 μg)+anti-PD-L1 (100 μg). n=8-9 mice/group. Anti-PD-L1 monoclonal antibody was injected intaperitoneally on days 10, 14, 18, and 22 after tumor inoculation. ELANE or PMSF-ELANE were delivered intra-tumorally when tumors reached ˜[…] (˜ 14 days post cancer cell injection). (FIG. 20A) Tumor volume was measured by calipers. (FIG. 20B) Kaplan-Meier curve was plotted and the logrank test (Mentel-Cox method) was used for mouse survival analysis. End point of survival is defined as tumor volume >1000 mm^3. *, p<0.05, Student's t-test.

CD95 = CD95 immunoreactivity and ELANE uptake in non-cancer cells; assay type: cell-based
Protocol: Non-cancer cells were treated with ELANE (50 nM) for 1 hr, fixed in 10% formalin, and stained with N- or C-terminal specific anti-CD95 antibodies. Hoechst 33342 solution was used for nuclear staining. Images were taken under 40×. […] Non-cancer cells were treated with ELANE (100 nM) in the presence or absence of a broad endocytosis inhibitor Dynasore (80 μM) for 30 mins. ELANE catalytic activity in cell lysates was assessed using a chromogenic substrate assay.

healthy cells = experiment: Healthy cell viability, Calcein AM; assay type: cell-based; conditions: 50 nM, 24 hrs
Protocol: Human PMN'S broadly and selectively kill cancer cells. Human peripheral blood neutrophils (PMN) were isolated from healthy donors and incubated in serum-free DMEM to collect their secreted factors (PMN-media). (A-B) Human or murine cancer cells (A) or healthy cells (b) were incubated with PMN media or control serum-free DMEM (Ctrl media) for 24 hours. Cell viability was assessed by Calcein AM staining. (C) Human or murine cancer cells were treated with PMN media or Ctrl media for 6 hours. Caspase 3/7 activity was examined by a luminescence activity assay, while cell surface Annexin V staining was assessed by flow cytometry. […] (FIG. 1).
(FIG. 6A) Cancer cells or healthy cells were treated with 50 nM purified native ELANE or control DMEM media (Ctrl) media for 24 hrs, and cell viability was assessed by Calcein AM staining. (FIG. 6B) Cancer cells were treated with 50 nM ELANE or Ctrl media for 6 hrs, and apoptosis was assessed by Caspase 3/7 luminesce activity assay or cell surface Annexin V staining by flow cytometry. *, p<0.05, Student's t-test.

Cancer cells [1] = experiment: ELANE uptake and killing with endocytosis inhibitor Dynasore; assay type: cell-based; conditions: ELANE 30 nM, Dynasore 80 μM, 6 hours
Protocol: (FIG. 9A) Cancer cells were treated with ELANE (100 nM) in the presence or absence of a broad endocytosis inhibitor Dynasore (80 μM) for 30 mins. ELANE catalytic activity in cell lysates was assessed by a chromogenic substrate assay. (FIG. 9B) Cancer cells were treated with ELANE (30 nM) in the presence or absence of Dynasore (80 μM) for 6 hours. Cell viability was examined by Calcein AM staining. *, p<0.05, Student's t-test.

Cancer cells [2] = experiment: Killing program signaling in cancer cells (ERK, NFKB, JNK, ROS, H2AX, CASP3, PARP); assay type: cell-based, Human and mouse; conditions: 50 nM
Protocol: (FIG. 10A) Cancer cells were treated with ELANE (50 nM) for 4 hrs, and phosphorylated and total ERK, NFKB, and JNK were quantified by western blotting. Immunoblots for E0771 cancer cells are shown as an example. (FIG. 10B) Cancer cells were treated with various doses of ELANE for 1 hr and mitochondrial ROS was measured by flow cytometry using CM-H2DCFDA dye. (FIG. 10C) Cancer cells were treated with ELANE (50 nM) and DNA damage was assessed by immunoblotting for phospho-(γH2AX) and total H2AX. Immunoblots for A549 cancer cells are shown as an example. (FIG. 10D) Cells were treated with ELANE (50 nM) for 8 hrs, and full length and cleaved CASP3 (c-CASP3) and cleaved PARP (c-PARP) were quantified by immunoblotting. Immunoblots for LLC1 cancer cells are shown as an example. *, p<0.05, Student's t-test.
ELANE induces a robust killing program in a variety of cancer cells. Human and mouse cancer cells were treated with ELANE and signaling pathways associated with cancer cell death were assessed. Cells were treated with ELANE (50 nM) for 4 hrs, and phosphorylated and total ERK, NFKB, and JNK were quantified by western blotting. Cells were treated with various doses of ELANE for 1 hr and mitochondrial ROS was measured by flow cytometry using CM-H2DCFDA dye. Cells were treated with ELANE (50 nM) and DNA damage was assessed by western blot for phospho-(γH2AX) and total H2AX. […]

MDA-MB-231 cells = experiment: ELANE inactivation by PMSF or A1AT and killing assay; assay type: cell-based, human; conditions: PMSF 100 nM or A1AT 42 nM for 30 mins; 24 hrs
Protocol: (FIG. 5A) Purified native ELANE or PMN media was treated with PMSF (100 nM) or alpha-1-anti-trypsin (A1AT; 42 nM) for 30 mins and loss of ELANE catalytic activity was confirmed by a chromogenic substrate assay. Killing assays were performed by treating MDA-MB-231 cells for 24 hrs treatment and assessed by Calcein AM staining. (FIG. 5B) ELANE activity in PMN media was measured by a chromogenic substrate activity assay, and PMN killing was measured by Calcein AM staining on MDA-MB-231 cells exposed to PMN media for 4h.

[3] = test system: E0771, B16F10, or LLC1 cancer cells; experiment: Tumor growth after intratumoral delivery, syngeneic models; assay type: in vivo, C57BL/6 mice; conditions: 11.6 μg intratumorally once/day for 5 days
Protocol: ELANE activity is required for its anti-tumor function in vivo. (FIG. 14A) Catalytic activity of ELANE or ELANE that had been inactivated by treatment with 100 nM PMSF (PMSF-ELANE) was determined by a chromogenic substrate. (FIG. 14B) E0771, B16F10, or LLC1 cancer cells were injected into C57BL/6 mice. Once tumors reached ˜100 mm^3, human serum albumin (HSA, 11.6 μg), ELANE (11.6 μg), or PMSF-ELANE (11.6 μg) were delivered intratumorally once/day for 5 days. Tumor volume was assessed by calipers.

B1: neutrophil elastase (protein, listed as Homo sapiens)
chain: MTLGRRLACLFLACVLPALLLGGTALASEIVGGRRARPHAWPFMVSLQLRGGHFCGATLIAPNFVMSAAHCVANVNVRAVRVVLGAHNLSRREPTRQVFAVQRIFENGYDPVNLLNDIVILQLNGSATINANVQVAQLPAQGRRLGNGVQCLAMGWGLLGRNRGIASVLQELNVTVVTSLCRRSNVCTLVRGRQAGVCFGDSGSPLVCNGLIHGIASFVRGGCASGLYPDAFAPVAQFVNWIDSIIQRSEDNPCPHPRDPDPASRTH
notes: purified native ELANE
For B1, the “efficacy with anti-PD-L1” value (E0771 cancer cells) was “enables anti-PDL1 efficacy”, the “CD95 immunoreactivity of non-cancer cells” value (CD95; 50 nM, 1 hr) was “loss of immunoreactivity with a C-terminal specific antibody” and the “uptake by non-cancer cells” value (CD95; 100 nM, 30 mins) was “internalized by non-cancer cells”. For the same molecule, the healthy cell viability (healthy cells) was “does not kill normal healthy cells”, the “dependence of killing on uptake” value (Cancer cells [1]) was “internalization is required to kill cancer cells” and the “killing program in cancer cells” value (Cancer cells [2]) was “induces a robust killing program in cancer cells”. For the same molecule, the “dependence of cancer cell killing on catalytic activity” value (MDA-MB-231 cells) was “catalytic activity is required for its selective cancer cell killing” and the tumor growth [3] was “slows tumor growth”.
